# Assay results reported in PMC4850247.
# Columns and labels:
# [1] = target: Full-length human OTUD2 (human) (UniProt Q5VVQ6)
# [2] = target: OTUD3 (aa 52-209) (human) (UniProt Q5T2D3)
# [3] = target: Full-length human OTUD2 (human) (UniProt Q5VVQ6); assay: covalent labelling with an active site-directed probe (SDS-PAGE, fluorescence scan); 0.1 μM OTUD2 constructs with 1 μM TAMRA-labeled K11-linked diUb-PA, time course up to 60 min, bands quantified
# [4] = target: OTUD2 OTU (aa 147-314) (human) (UniProt Q5VVQ6); assay: as above
# [5] = target: Full-length human OTUD2 (human) (UniProt Q5VVQ6); assay: covalent labelling with an active site-directed probe (SDS-PAGE, fluorescence scan); 0.2 μM OTUD2 with 2 μM TAMRA-labeled mUb-PA or diUb-PA probes, time course, 30°C, 20 mM Tris-HCl pH 7.5, 150 mM NaCl; bands quantified and fitted by pseudo-first-order one-phase association, plateau forced to that of K11
# Chain of UniProt Q5T2D3 (Q5T2D3 52-209): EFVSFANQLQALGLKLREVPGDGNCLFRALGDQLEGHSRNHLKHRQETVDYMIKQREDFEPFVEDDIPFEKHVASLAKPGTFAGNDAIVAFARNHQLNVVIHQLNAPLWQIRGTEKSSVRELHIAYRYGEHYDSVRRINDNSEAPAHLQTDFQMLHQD
Substance,"KM of AMC release from diUb-AMC (Michaelis-Menten, 15 nM OTUD2, substrate up to 20 μM) [1] [µM]","KM of AMC release from diUb-AMC (Michaelis-Menten, 15 nM OTUD3) [2] [µM]",t1/2 of covalent probe labelling [5] [min],further results
K11 triazole-linked diUb-AMC substrate (from UniProt P0CG48 1-76),20,3.7,–,–
K27 triazole-linked diUb-AMC substrate (from UniProt P0CG48 1-76),–,4.7,–,–
K33 triazole-linked diUb-AMC substrate (from UniProt P0CG48 1-76),100,–,–,–
TAMRA-labeled K11 triazole-linked diUb-PA probe (from UniProt P0CG48 1-75; P0CG48 1-75),–,–,3.5,t1/2 of covalent probe labelling [3]: 5.3 min; t1/2 of covalent probe labelling [4]: 6.8 min
TAMRA-labeled K33 triazole-linked diUb-PA probe (from UniProt P0CG48 1-75; P0CG48 1-75),–,–,8.5,–
